The values below come from patent US6734169B2, “Apolipoprotein A-I agonists and their use to treat dyslipidemic disorders” (priority 1997, dated 2004).

Series [1] can be described thus: Circular dichroism: degree of helicity. It counts as physicochemical. The following applies: for He (%) TFE / He (%) free / He (%) mics / He (%) SUVs: percent helicity, 37° C.; for He (%) TFE: 5 μM peptide, 90% vol TFE; for He (%) free: unbound peptide, 5 μM in 5 mM phosphate buffer, pH 7.4; for He (%) mics: peptide-micelle complexes (1-myristoyl-2-hydroxy-sn-glycero-3-phosphatidyl choline, Ri=100); for He (%) SUVs: peptide-SUV complexes (20:1 EPC:Chol., Ri=50). The method, then:
Far UV circular dichroism spectra were recorded between 190 and 260 nm (in 0.5 nm or 0.2 nm increments) with a AVIV62DS spectrometer (AVIV Associates, Lakewood, N.J., USA) equipped with a thermoelectric cell holder and sample changer. The instrument was calibrated with (+)-10-[…]. Between one and three scans were collected for each sample, using 10 cm, 5 cm, 1 cm and 0.1 cm path length quartz Suprasil cells, respectively, for peptide concentrations of 10^−7 M to 10^−4 M. The bandwidth was fixed at 1.5 nm and the scan speed to 1s per wavelength step. The reported data are the mean of at least 2 or 3 independent measurements.
After background subtraction, spectra were converted to molar ellipticity (θ) per residue in […]. The peptide concentration was determined by amino acid analysis and also by absorption spectrometry on a Perkin Elmer Lambda 17 UV/Visible spectrophotometer when the peptide contained a chromophore (tryptophan, dansyl, naphthylalanine).
CD spectra were obtained with free, unbound peptide (5 μM in 5 mM phosphate buffer, pH 7.4); with peptide-SUV complexes (20:1 EPC:Chol., Ri=50); with peptide-micelle complexes (1-myristoyl-2-hydroxy-sn-glycero-3-phosphatidyl choline, Ri=100); and with free, unbound peptide in the presence of 2,2,2-trifluoroethanol (TFE) (5 μM peptide, 90% vol TFE).
The SUVs were obtained by dispersing the lipids (10 mM, 20:1 EPC:Chol., Avanti Polar Lipids, AL) in phosphate buffer (5 mM, pH 7.4) with bubbling N2 for 5 min., followed by sonication (1.5 hr.) in a bath sonicator. The homogeneity of the preparation was checked by FPLC.
The micelles were obtained by dispersing the lipid (6 mM 1-myristoyl-2-hydroxy-sn-glycero-3-phosphatidyl choline, Avanti Polar Lipids, AL) in phosphate buffer (5 mM, pH 7.4) with bubbling N2 for 5 min., followed by vortexing.
To obtain the peptide-SUV complexes, SUVs were added to the peptide (5 μM in 5 mM phosphate buffer, pH 7.4) at a phospholipid-peptide molar ratio (Ri) of […].
To obtain the peptide-micelle complexes, micelles were added to the peptide (5 μM in 5 mM phosphate buffer, pH 7.4) at a Ri of 100.
All spectra were recorded at 37° C. The stability of peptide 210 (SEQ ID NO:210) as a function of temperature (both free in buffer and in micelles) was determined by recording spectra at a series of different temperatures.
The degree of helicity of the peptides in the various conditions was determined from the mean residue ellipticity at 222 nm (Chen et al., 1974, Biochemistry 13:3350-3359) or by comparing the CD spectra obtained to reference spectra available on databases (16 helical reference spectra from Provencher & Glockner, 1981, Biochemistry 20:33-37; denatured protein reference spectra from Venyaminov et al., 1993, Anal. Biochem. 214:17-24) using the CONTIN curve-fitting algorithm version 2DP, CD-1 pack (August 1982) (Provencher, 1982, Comput. Phys. Commun. 27:213-227, 229-242). Acceptable fit was determined using the statistical analysis methodology provided by the CONTIN algorithm. The error of all methods was ±5% helicity.
A general note: CD spectra are sensitive to the conformation of chiral molecules.

Series [2] can be described thus: Lipid binding by fluorescence spectroscopy. The following applies: for I/Io: peptide 2 μM, 37° C. The method, then:
The lipid binding properties of the peptides synthesized in Section 6, supra, were tested by fluorescence measurements with labeled peptides, in the present case tryptophan (Trp or W) or naphthylalanine (Nal). The fluorescence spectra were recorded on a Fluoromax from Spex (Jobin-Yvon) equipped with a Xenon lamp of 150 W, two monochromators (excitation and emission), a photomultiplier R-928 for detection sensitive in the red up to 850 nm and a thermoelectric magnetic stirred cell holder. Quartz Suprasil cuvettes were used for measurements in the micromolar concentration range. A device of variable slits (from 0.4 to 5 nm) allows modulation of the incident and emitted intensities according to the concentration of peptide used. The reported values are in general the average of between 2 to 4 spectra. The peptide concentration is determined by absorption spectrometry on a Philips PU 8800 using the absorption band of the Trp (∈280 nm=5,550 M^−1 cm^−1 in Tris buffer) or the Nal (∈224 nm=92,770 M^−1 cm^−1 in methanol).
Fluorescence spectra of the peptides were recorded between 290 nm and 450 nm in Tris-HCl buffer (20 mM, pH=7.5), in the presence and absence of lipidic vesicles. The small unilamellar vesicles were formed after rehydration in buffer of the lyophilized phospholipids, dispersion and tip sonification under a N2 stream. The lipids used were either Egg PC/Chol. (20:1) or POPC/Chol. (20:1). The spectra were recorded at a peptide concentration of 2 μM and at a temperature of 37° C. The fluorescence reference standard in the case of Trp was N-acetyltryptophanylamide (NATA).
Lipid binding studies were done through progressive lipidic vesicle addition to the peptide in solution at 2 μM (slits:5 nm in excitation and 1.5 nm in emission). Dilution effects were taken into account for the fluorescence intensity determination. The lipid concentrations were varied from 10 to 600 μM and the molar ratio of lipid to peptide (Ri) was varied from 5 to 300. The wavelength of excitation was set at 280 nm for both Trp and Nal.
The data were directly recorded and treated by an IBM-PC linked to the spectrofluorimeter through the DM3000F software from Spex. The spectra were corrected by substraction of the solvent contribution and by application of a coefficient given by the constructor taking into account the variation of the photomultiplier response versus the wavelength.
The fluorescence spectra of the peptides were characterized by the wavelength at their maximum of fluorescence emission and by their quantum yield compared to NATA in the case of peptides labeled with a tryptophan. The process of binding to lipids was analyzed by calculating the shift of the wavelength at the maximum of fluorescence emission, (λmax), and the variation of the relative fluorescence intensity of emission versus the lipid concentration. The relative fluorescence intensity is defined as the following ratio: (I-I0)λmax/I0λmax. I and I0 are both measured at the (λmax) corresponding to the initial free state of the peptide i.e., without lipids. I is the intensity at a defined lipid to peptide ratio and I0 is the same parameter measured in absence of lipids. The absence of these variations is relevant to the absence of interactions of the peptides with the lipids.

[3] abbreviates: EPC/Chol (20:1) small unilamellar vesicles.

Square brackets hold non-standard residues; d marks the D form. Primed or numbered codes have the meaning given here. Ends that are not written are not given here. Nal″ = Z is Nal (naphthylalanine; Nal = Z in the sequences is Nal; Aib = CC(C)(N)C(=O)O

With “pllellkellqellealkqklk ([dP][dL][dL][dE][dL][dL][dK][dE][dL][dL][dQ][dE][dL][dL][dE][dA][dL][dK][dQ][dK][dL][dK]) [compound 87]”, in series [1], the “He (%) TFE” value is 100% and the “He (%) free” value came to 100%.

Regarding “PVLDLFRELWEELKQKLK* (Ac-PVLDLFRELWEELKQKLK-NH2) [peptide 199]”, the “lipid binding (burying of the tryptophan, fluorescence intensity exaltation)” value in series [2] (setting [3]) is recorded as “binds very effectively”. Further, the “lipid to peptide molar ratio at which the burying of the tryptophan residue is maximal” value in series [2] (setting [3]) is reported as “about 100”. In addition, the I/Io in series [2] (Lipid:Peptide Molar Ratio (Ri) 0) was 0; in series [2] (Ri 5), 8; in series [2] (Ri 10) it was 8; in series [2] (Ri 30), 18; in series [2] (Ri 60), 22; in series [2] (Ri 100), 27. The substance also yielded an I/Io in series [2] (Ri 200) of 41. Further, the “λmax (nm)” value is on record as 344 nm in series [2] (Ri 5); 339 nm in series [2] (Ri 10); 328 nm in series [2] (Ri 30); 326 nm in series [2] (Ri 100); 325 nm in series [2] (Ri 200); 348 nm in series [2] (maximum of tryptophan fluorescence emission, Ri 0 (in buffer, no lipid), 2 μM).

As for “EWLEAFYKKVLEKLKELF* (Ac-EWLEAFYKKVLEKLKELF-NH2) [compound 239, reference compound]”, in series [1], the “He (%) free” value worked out at 44% and the “He (%) mics” value was 49%.

In the case of PVLDLFRELLEELKQKLK [peptide 210], the “stability of the α-helical structure as a function of temperature” value in series [1] (temperature range of 5°-45° C., data not shown) is listed as “completely stable”.

“pvldefreklneXlealkqklk ([dP][dV][dL][dD][dE][dF][dR][dE][dK][dL][dN][dE][Aib][dL][dE][dA][dL][dK][dQ][dK][dL][dK]) [compound 44]”: in series [1], the “He (%) free” value is 20% and the “He (%) mics” value is on record as 86%.

“pVLELFENLLERLLDALQKKLK ([dP]VLELFENLLERLLDALQKKLK) [compound 144]”: in series [1], the “He (%) TFE” value stood at 95%, the “He (%) free” value stood at 89% and the “He (%) mics” value is given as 88%.

In the case of “PVLDLFRWLLNEXLEALKQKLK (PVLDLFRWLLNE[Aib]LEALKQKLK) [compound 108]”, the “He (%) SUVs” value in series [1] came out at 54%.

Turning to “pvldlfrellneXlealkqklk ([dP][dV][dL][dD][dL][dF][dR][dE][dL][dL][dN][dE][Aib][dL][dE][dA][dL][dK][dQ][dK][dL][dK]) [compound 96]”, in series [1], the “He (%) TFE” value turned out to be 81%, the “He (%) free” value stood at 52%, the “He (%) SUVs” value is given as 63% and the “He (%) mics” value stood at 85%.

Turning to “PVLDLFRELLNELZEALKQKLK (PVLDLFRELLNEL[Nal]EALKQKLK) [compound 27]”, in series [1], the “He (%) TFE” value was determined as 81%, the “He (%) free” value amounted to 72%, the “He (%) SUVs” value turned out to be 82% and the “He (%) mics” value is recorded as 92%.

On to GVLELFENLLERLLDALQKKLK [compound 145], for which, in series [1], the “He (%) TFE” value came out at 58%, the “He (%) free” value amounted to 55% and the “He (%) mics” value is reported as 51%.

Turning to “PVLDZFRELLNELLEALKQKLK (PVLD[Nal]FRELLNELLEALKQKLK) [compound 34]”, in series [1], the “He (%) TFE” value came to 62%, the “He (%) free” value was determined as 58%, the “He (%) SUVs” value was determined as 68% and the “He (%) mics” value is 67%.

As for pvldlfrellnellealkqklk [compound 100], in series [1], the “He (%) TFE” value was found to be 98%, the “He (%) free” value was found to be 83% and the “He (%) mics” value was 92%.

As to .klkgklaellenllerfldlvp [compound 107], the “He (%) TFE” value in series [1] was found to be 77%.

“PVLDLFRELLNELLEAZKQKLK (PVLDLFRELLNELLEA[Nal″]KQKLK) [peptide 10]”: in series [1], the “He (%) TFE” value is 71%, the “He (%) free” value worked out at 60%, the “He (%) SUVs” value was determined as 70% and the “He (%) mics” value is on record as 87%.
